Source: patent US20250011397A1 (HOSPITAL FOR SICK CHILDREN, published 2025)
Changes are numbered by the printed parent chain. Where “and” joins values, the source holds several entries; their conditions need not be identical. Equal values may be shown once. Read-outs that look alike come from different tables or passages of the source.

Legend:
[1] = target: T1, SARS-CoV-2 Spike on HIV-based pseudotyped virus (Spike plasmid BEI NR52310) (SARS-CoV-2, UniProt P0DTC2 14-1273); assay: cell-based or functional assay
[2] = target: Spike of authentic SARS-CoV-2/SB2-P4-PB virus (SARS-CoV-2, UniProt P0DTC2 14-1273); assay: cell-based or functional assay
[3] = target: T1, SARS-CoV-2 Spike on HIV-based …; assay: cell-based or functional assay; remark: listed apart in the source
[4] = target: T1, SARS-CoV-2 Spike on HIV-based …; assay: cell-based or functional assay; remark: listed apart in the source
mouse FcRn [5] = target: T2, mouse FcRn (mouse, UniProt Q61559 22-297; P01887 21-119)
T2 sequence (looked up) 1: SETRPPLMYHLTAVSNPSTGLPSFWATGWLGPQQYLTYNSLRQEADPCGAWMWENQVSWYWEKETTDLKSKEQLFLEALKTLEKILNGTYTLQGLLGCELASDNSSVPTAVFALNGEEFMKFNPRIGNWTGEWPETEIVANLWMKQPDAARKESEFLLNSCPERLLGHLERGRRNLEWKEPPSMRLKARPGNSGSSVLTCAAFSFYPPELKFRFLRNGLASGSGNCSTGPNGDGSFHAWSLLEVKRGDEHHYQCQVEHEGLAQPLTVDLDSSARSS
T2 sequence (looked up) 2: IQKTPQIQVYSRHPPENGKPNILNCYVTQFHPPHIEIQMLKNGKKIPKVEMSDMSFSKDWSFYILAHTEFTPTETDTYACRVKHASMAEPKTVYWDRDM

mouse FcγRI = target: T3, mouse FcγRI (mouse, UniProt P26151 25-297)
T3 sequence (looked up): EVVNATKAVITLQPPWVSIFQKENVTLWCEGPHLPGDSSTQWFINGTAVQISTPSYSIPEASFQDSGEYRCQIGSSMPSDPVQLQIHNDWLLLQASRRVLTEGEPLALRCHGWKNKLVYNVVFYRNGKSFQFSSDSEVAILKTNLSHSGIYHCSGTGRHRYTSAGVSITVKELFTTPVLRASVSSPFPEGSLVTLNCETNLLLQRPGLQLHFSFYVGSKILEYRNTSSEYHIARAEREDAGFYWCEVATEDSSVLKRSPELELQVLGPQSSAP

mouse FcRn [6] = target: T2, mouse FcRn; assay: pH 5.6

B1: MB 324 (other)
heavy: QVQLVQSGAEVKKPGASVKVSCKASGGTFNNYGISWVRQAPGQGLEWMGWMNPNSGNTGYAQKFQGRVTMTRDTSTSTVYMELSSLRSEDTAVYYCARVGDYGDYIVSPFDLWGRGTLVTVSSASTKGPSVFPLAPSSKSTSGGTAALGCLVKDYFPEPVTVSWNSGALTSGVHTFPAVLQSSGLYSLSSVVTVPSSSLGTQTYICNVNHKPSNTKVDKKVEPKSC
light: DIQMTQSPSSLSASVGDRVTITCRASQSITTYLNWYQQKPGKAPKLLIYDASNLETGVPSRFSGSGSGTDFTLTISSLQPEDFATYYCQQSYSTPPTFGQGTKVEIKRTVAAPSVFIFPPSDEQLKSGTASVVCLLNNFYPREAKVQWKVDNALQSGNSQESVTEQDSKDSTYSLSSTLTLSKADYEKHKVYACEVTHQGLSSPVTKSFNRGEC
Question: What does the source list for B1?
Answer: IC50 SARS-CoV2 PsV (µg/mL), MB [1]: 0.0009 µg/mL; IC50 SARS-CoV2/SB2-P4-PB (µg/mL), MB [2]: 0.024 µg/mL; Median IC50 (PsV neutralization) [3]: 0.0009 µg/mL and 0.39 pM

B2: mAb 46 (antibody, V domains shown)
VH: EVQLLESGGGLVQPGRSLRLSCAASGFTFSSYAMSWVRQAPGKGLEWVSTIYSGGSTYYADSVKGRFTISRDNSKNTLYLQMNSLRAEDTAVYYCARGDSRDAFDIWGQGTMVTVSS
VL: DIQMTQSPSSLSASVGDRVTITCRASQSISSWLAWYQQKPGKAPKLLIYDASNLETGVPSRFSGSGSGTDFTLTISSLQPEDFATYYCQQSYSTPFTFGPGTKVDIKR
notes: also called IgG 46; antibody 46
Question: B2 was tested. Which “IC50 SARS-CoV2 PsV (µg/mL), IgG” value [1] did it give?
Answer: Its value is 2.1 µg/mL.

Question: And the “IC50 SARS-CoV2/SB2-P4-PB (µg/mL), IgG” value [2]?
Answer: The value was 19 µg/mL.

Question: And the “Median IC50 (PsV neutralization)” value [3]?
Answer: Its value is 2.1 µg/mL and 14 nM.

B3: mAb 324 (antibody, V domains shown)
VH: QVQLVQSGAEVKKPGASVKVSCKASGGTFNNYGISWVRQAPGQGLEWMGWMNPNSGNTGYAQKFQGRVTMTRDTSTSTVYMELSSLRSEDTAVYYCARVGDYGDYIVSPFDLWGRGTLVTVSS
VL: B2 VL with S30T, S31T, W32Y, A34N, F96P, P100Q, D105E
notes: also called IgG 324
Question: How did the “IC50 SARS-CoV2 PsV (µg/mL), IgG” value [1] turn out when B3 was run?
Answer: The value was 0.78 µg/mL.

Question: And the “IC50 SARS-CoV2/SB2-P4-PB (µg/mL), IgG” value [2]?
Answer: The value was 21 µg/mL.

Question: What about the “Median IC50 (PsV neutralization)” value [3] of the same binder?
Answer: The value was 0.78 µg/mL and 5.2 nM.

B4: 4A8 IgG (antibody, V domains shown)
VH: EVQLVESGAEVKKPGASVKVSCKVSGYTLTELSMHWVRQAPGKGLEWMGGFDPEDGETMYAQKFQGRVTMTEDTSTDTAYMELSSLRSEDTAVYYCATSTAVAGTPDLFDYYYGMDVWGQGTTVTVSS
VL: EIVMTQSPLSSPVTLGQPASISCRSSQSLVHSDGNTYLSWLQQRPGQPPRLLIYKISNRFSGVPDRFSGSGAGTDFTLKISRVEAEDVGVYYCTQATQFPYTFGQGTKVDIK
notes: also called IgG 4A8
Question: Which “Median IC50 (PsV neutralization)” value [4] does the source give for B4 here?
Answer: The value was > 100 µg/mL and > 0.66 µM.

B5: MB 46 (other)
heavy: EVQLLESGGGLVQPGRSLRLSCAASGFTFSSYAMSWVRQAPGKGLEWVSTIYSGGSTYYADSVKGRFTISRDNSKNTLYLQMNSLRAEDTAVYYCARGDSRDAFDIWGQGTMVTVSSASTKGPSVFPLAPSSKSTSGGTAALGCLVKDYFPEPVTVSWNSGALTSGVHTFPAVLQSSGLYSLSSVVTVPSSSLGTQTYICNVNHKPSNTKVDKKVEPKSC
light: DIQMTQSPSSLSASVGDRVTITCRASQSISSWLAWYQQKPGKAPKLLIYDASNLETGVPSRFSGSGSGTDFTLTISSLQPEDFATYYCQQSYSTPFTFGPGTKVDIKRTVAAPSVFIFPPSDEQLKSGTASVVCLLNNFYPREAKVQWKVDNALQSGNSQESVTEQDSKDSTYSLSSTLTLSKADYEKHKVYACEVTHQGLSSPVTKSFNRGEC
Question: B5 was tested. Which “IC50 SARS-CoV2 PsV (µg/mL), MB” value [1] did it give?
Answer: Its value is 0.0024 µg/mL.

Question: What about the “IC50 SARS-CoV2/SB2-P4-PB (µg/mL), MB” value [2] of the same binder?
Answer: The value was 0.027 µg/mL.

Question: And the “Median IC50 (PsV neutralization)” value [3]?
Answer: Its value is 0.0024 µg/mL and 1 pM.

B6: MB 82 (other)
heavy: QVQLVQSGAEVKKPGASVKVSCKASGGSFSTSAFYWVRQAPGQGLEWMGWINPYTGGTNYAQKFQGRVTMTRDTSTSTVYMELSSLRSEDTAVYYCARSRALYGSGSYFDYWGQGTLVTVSSASTKGPSVFPLAPSSKSTSGGTAALGCLVKDYFPEPVTVSWNSGALTSGVHTFPAVLQSSGLYSLSSVVTVPSSSLGTQTYICNVNHKPSNTKVDKKVEPKSC
light: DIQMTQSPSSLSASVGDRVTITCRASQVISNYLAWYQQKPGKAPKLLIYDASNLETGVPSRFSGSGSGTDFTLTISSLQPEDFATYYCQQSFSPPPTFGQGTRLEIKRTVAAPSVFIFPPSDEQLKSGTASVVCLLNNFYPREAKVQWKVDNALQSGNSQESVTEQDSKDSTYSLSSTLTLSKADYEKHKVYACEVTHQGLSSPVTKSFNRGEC
Question: What does the source list for B6?
Answer: IC50 SARS-CoV2 PsV (µg/mL), MB [1]: 0.0022 µg/mL; IC50 SARS-CoV2/SB2-P4-PB (µg/mL), MB [2]: 0.21 µg/mL; Median IC50 (PsV neutralization) [3]: 0.0022 µg/mL and 0.95 pM

B7: HD37 (anti-hCD19) mouse IgG2a, parental IgG (antibody)
chain: DILLTQTPASLAVSLGQRATISCKASQSVDYDGDSYLNWYQQIPGQPPKLLIYDASNLVSGIPPRFSGSGSGTDFTLNIHPVEKVDAATYHCQQSTEDPWTFGGGTKLEIKRADAAPTVSIFPPSSEQLTSGGASVVCFLNNFYPKDINVKWKIDGSERQNGVLNSWTDQDSKDSTYSMSSTLTLTKDEYERHNSYTCEATHKTSTSPIVKSFNRNECGGSSGSGSGSTGTSSSGTGTSAGTTGTSASTSGSGSGGGGGSGGGGSAGGTATAGASSGSGSSGSSSSGGTGTGQVQLQQSGAELVRPGSSVKISCKASGYAFSSYWMNWVKQRPGQGLEWIGQIWPGDGDTNYNGKFKGKATLTADESSSTAYMQLSSLASEDSAVYFCARRETTTVGRYYYAMDYWGQGTSVTVSSSQSFPNVFPLVSCESPLSDKNLVAMGCLARDFLPSTISFTWNYQNNTEVIQGIRTFPTLRTGGKYLATSQVLLSPKSILEGSDEYLVCKIHYGGKNRDLHVPIPSKPCPPCKCPAPNLLGGPSVFIFPPKIKDVLMISLSPIVTCVVVDVSEDDPDVQISWFVNNVEVHTAQTQTHREDYNSTLRVVSALPIQHQDWMSGKEFKCKVNNKDLPAPIERTISKPKGSVRAPQVYVLPPPEEEMTKKQVTLTCMVTDFMPEDIYVEWTNNGKTELNYKNTEPVLDSDGSYFMYSKLRVEKKNWVERNSYSCSVVHEGLHNHHTTKSFSRTPGK
notes: also called mIgG2a control; HD37 single chain IgG2a
Question: What does the source list for B7?
Answer: kon (mouse FcRn [5]): 116000 M⁻¹ s⁻¹; Kd (mouse FcγRI): 8.63 nM; koff (mouse FcγRI): 0.000451 s⁻¹; kon (mouse FcγRI): 52200 M⁻¹ s⁻¹; Kd (mouse FcRn [6]): 1.06 nM; koff (mouse FcRn [6]): 0.000123 s⁻¹

B8: mAb 52 (antibody, V domains shown)
VH: QVQLVQSGAEVKKPGSSVKVSCKASGYTFTSYGISWVRQAPGQGLEWMGGIIPMFGTTNYAQKFQGRVTITADKSTSTAYMELSSLRSEDTAVYYCARDRGDTIDYWGQGTLVTVSS
VL: DIQMTQSPSSLSASVGDRVTITCRASQGISNNLNWYQQKPGKAPKLLIYAASSLESGVPSRFSGSGSGTDFTLTISSLQPEDFATYYCQQGNGFPLTFGPGTKVDIKR
notes: also called IgG 52; antibody 52
Question: Which results are given for B8?
Answer: IC50 SARS-CoV2 PsV (µg/mL), IgG [1]: 0.55 µg/mL; IC50 SARS-CoV2/SB2-P4-PB (µg/mL), IgG [2]: 6.2 µg/mL; Median IC50 (PsV neutralization) [3]: 0.61 µg/mL and 4.1 nM

B9: mAb 236 (antibody, V domains shown)
VH: QVQLVQSGAEVKKPGASVKVSCKASGGTFTSYGINWVRQAPGQGLEWMGWMNPNSGNTGYAQKFQGRVTMTRDTSTSTVYMELSSLRSEDTAVYYCASRGIQLLPRGMDVWGQGTTVTVSS
VL: not shown
notes: also called IgG 236
Question: Which “IC50 SARS-CoV2 PsV (µg/mL), IgG” value [1] does the source give for B9 here?
Answer: Its value is 0.057 µg/mL.

Question: What about the “IC50 SARS-CoV2/SB2-P4-PB (µg/mL), IgG” value [2] of the same binder?
Answer: Its value is 5.5 µg/mL.

Question: What about the “Median IC50 (PsV neutralization)” value [3] of the same binder?
Answer: Its value is 0.057 µg/mL and 0.38 nM.
